Publication PMC10644352, “Bromodomain Factor 5 as a Target for Antileishmanial Drug Discovery” (ACS Infectious Diseases, 2023)

How the values were obtained:
[1] = molecular target: 5-FAM-labeled H2B(9-23)K9Ac K15Ac K19Ac K21Ac peptide of L. donovani histone H2B (Leishmania donovani); experiment: fluorescence polarisation; 800 nM 5-FAM peptide, protein 0-300 μM; 20 mM HEPES, 500 mM NaCl, 1 mg/mL BSA, pH 7.5; 30 min at room temperature; one-site-specific binding fit (two-site for BD5T); n = 3
[2] = molecular target: 5-FAM-labeled H2B(17-23)K19Ac K21Ac peptide of L. donovani histone H2B (Leishmania donovani); experiment: as above
[3] = molecular target: 5-FAM-labeled H2B(8-16)K9Ac K15Ac peptide of L. donovani histone H2B (Leishmania donovani); experiment: as above
[4] = molecular target: unlabeled pan-acetylated peptide based on the H2B(9-23) sequence of L. donovani histone H2B (Leishmania donovani); experiment: thermal shift assay; 2.1 μM BD5T, 2x SYPRO orange, peptide at 400 μM, 20 mM HEPES, 500 mM NaCl, pH 7.5; 25 to 95 °C; n = 6

Substance | Kd [1] | Kd [2] | Kd [3] | ΔTm at 400 μM peptide [4]
Leishmania donovani bromodomain factor 5 (LdBDF5) first bromodomain, recombinant BD5.1 (domain or fragment) | 117 µM | 77.5 µM | 170 µM | –
Leishmania donovani bromodomain factor 5 (LdBDF5) second bromodomain, recombinant BD5.2 (domain or fragment) | 463 µM | 160 µM | 366 µM | –
Leishmania donovani bromodomain factor 5 (LdBDF5) tandem bromodomain pair, recombinant BD5T (domain or fragment) | – | – | – | 0.6 °C
